According to patent US20140274782A1, “AFFINITY REAGENTS AND METHODS FOR DETECTION, PURIFICATION, AND PROTEOMIC ANALYSIS OF METHYLATED PROTEINS” (The Board of Trustees of the Leland Stanford Junior …, priority 2013, published 2014):

Experiments:
Test in all cases: ProtoArray, G9a array SNR minus GST array SNR
[1] = molecular target: ACSL4, G9a-methylated (human) (UniProt O60488)
[2] = molecular target: ARL6IP1, G9a-methylated (human) (UniProt Q15041)
[3] = molecular target: C10orf83, G9a-methylated (human) (UniProt Q8NDC4)
[4] = molecular target: C12orf60, G9a-methylated (human) (UniProt Q5U649)
[5] = molecular target: C12orf62, G9a-methylated (human) (UniProt Q96I36)
C12orf62, G9a-methylated (human), sequence (Q96I36 whole entry): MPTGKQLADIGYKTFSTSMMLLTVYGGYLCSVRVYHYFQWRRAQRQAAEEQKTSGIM

[6] = molecular target: CA13, G9a-methylated (human) (UniProt Q8N1Q1)
[7] = molecular target: CCL24, G9a-methylated (human) (UniProt O00175)
[8] = molecular target: CD79A, G9a-methylated (human) (UniProt P11912)
[9] = molecular target: CDC2, G9a-methylated (human) (UniProt P06493)
CDC2, G9a-methylated (human), sequence (P06493 whole entry): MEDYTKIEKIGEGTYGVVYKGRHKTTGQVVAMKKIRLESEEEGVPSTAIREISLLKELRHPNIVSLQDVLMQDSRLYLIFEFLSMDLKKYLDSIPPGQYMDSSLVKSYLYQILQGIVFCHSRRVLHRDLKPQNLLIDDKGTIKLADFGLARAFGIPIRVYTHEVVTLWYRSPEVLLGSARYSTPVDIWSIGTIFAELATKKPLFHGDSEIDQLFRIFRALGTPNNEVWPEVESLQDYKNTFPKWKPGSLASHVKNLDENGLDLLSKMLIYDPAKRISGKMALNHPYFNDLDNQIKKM

[10] = molecular target: CDK10, G9a-methylated (human) (UniProt Q15131)
[11] = molecular target: CDK5RAP3, G9a-methylated (human) (UniProt Q96JB5)
CDK5RAP3, G9a-methylated (human), sequence (Q96JB5 whole entry): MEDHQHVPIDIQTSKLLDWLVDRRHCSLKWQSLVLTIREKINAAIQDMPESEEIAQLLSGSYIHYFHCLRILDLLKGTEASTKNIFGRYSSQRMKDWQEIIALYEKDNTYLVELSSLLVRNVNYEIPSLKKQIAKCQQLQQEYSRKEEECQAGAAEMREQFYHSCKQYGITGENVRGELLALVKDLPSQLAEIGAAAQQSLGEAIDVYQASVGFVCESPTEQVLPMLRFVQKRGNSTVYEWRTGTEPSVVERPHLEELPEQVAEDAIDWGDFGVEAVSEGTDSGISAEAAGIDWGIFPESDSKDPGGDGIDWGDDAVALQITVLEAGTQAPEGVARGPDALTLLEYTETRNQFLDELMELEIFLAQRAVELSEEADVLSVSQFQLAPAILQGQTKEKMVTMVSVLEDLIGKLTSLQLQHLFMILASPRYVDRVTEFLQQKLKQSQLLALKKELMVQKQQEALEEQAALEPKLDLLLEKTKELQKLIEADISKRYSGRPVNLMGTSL

[12] = molecular target: CDKL5, G9a-methylated (human) (UniProt O76039)
[13] = molecular target: CMTM3, G9a-methylated (human) (UniProt Q96MX0)
[14] = molecular target: CNTD1, G9a-methylated (human) (UniProt Q8N815)
[15] = molecular target: GAL, G9a-methylated (human) (UniProt P22466)
GAL, G9a-methylated (human), sequence (P22466 20-123 limits assumed): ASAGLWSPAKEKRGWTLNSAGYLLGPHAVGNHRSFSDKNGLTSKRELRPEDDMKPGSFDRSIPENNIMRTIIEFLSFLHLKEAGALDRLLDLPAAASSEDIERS

[16] = molecular target: GGPS1, G9a-methylated (human) (UniProt O95749)
GGPS1, G9a-methylated (human), sequence (O95749 whole entry): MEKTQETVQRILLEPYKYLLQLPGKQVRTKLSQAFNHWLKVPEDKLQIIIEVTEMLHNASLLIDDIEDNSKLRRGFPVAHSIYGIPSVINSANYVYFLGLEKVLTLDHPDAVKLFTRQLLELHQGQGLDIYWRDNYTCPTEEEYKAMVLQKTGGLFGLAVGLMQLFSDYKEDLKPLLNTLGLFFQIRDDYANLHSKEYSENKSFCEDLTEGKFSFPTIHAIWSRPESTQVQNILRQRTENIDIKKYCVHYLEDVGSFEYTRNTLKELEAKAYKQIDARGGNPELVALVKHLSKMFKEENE

[17] = molecular target: GPR108, G9a-methylated (human) (UniProt Q9NPR9)
[18] = molecular target: GYPC, G9a-methylated (human) (UniProt P04921)
GYPC, G9a-methylated (human), sequence (P04921 other isoform, or with tags, fused parts or gaps limits assumed): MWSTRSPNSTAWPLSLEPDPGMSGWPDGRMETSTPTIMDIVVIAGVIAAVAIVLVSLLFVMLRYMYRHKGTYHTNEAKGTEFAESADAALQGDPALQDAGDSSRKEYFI

[19] = molecular target: HIC2, G9a-methylated (human) (UniProt Q96JB3)
HIC2, G9a-methylated (human), sequence (Q96JB3 whole entry): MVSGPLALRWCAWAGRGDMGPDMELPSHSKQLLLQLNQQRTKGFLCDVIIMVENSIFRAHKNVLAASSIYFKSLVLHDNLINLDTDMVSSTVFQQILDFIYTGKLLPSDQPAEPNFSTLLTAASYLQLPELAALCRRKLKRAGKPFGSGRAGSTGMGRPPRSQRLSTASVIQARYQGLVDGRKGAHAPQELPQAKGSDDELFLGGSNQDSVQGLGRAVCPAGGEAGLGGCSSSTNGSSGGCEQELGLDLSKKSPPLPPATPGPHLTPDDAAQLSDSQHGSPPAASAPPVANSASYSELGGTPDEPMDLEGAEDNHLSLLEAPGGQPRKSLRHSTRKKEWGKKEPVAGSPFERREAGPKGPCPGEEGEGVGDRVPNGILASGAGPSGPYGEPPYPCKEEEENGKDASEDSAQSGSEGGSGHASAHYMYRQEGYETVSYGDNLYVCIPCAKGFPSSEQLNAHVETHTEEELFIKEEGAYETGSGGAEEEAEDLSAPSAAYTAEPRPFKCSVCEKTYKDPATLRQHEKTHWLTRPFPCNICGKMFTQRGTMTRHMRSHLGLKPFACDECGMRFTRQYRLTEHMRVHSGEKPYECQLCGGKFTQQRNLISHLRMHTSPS

[20] = molecular target: KIFC1, G9a-methylated (human) (UniProt Q9BW19)
KIFC1, G9a-methylated (human), sequence (Q9BW19 whole entry): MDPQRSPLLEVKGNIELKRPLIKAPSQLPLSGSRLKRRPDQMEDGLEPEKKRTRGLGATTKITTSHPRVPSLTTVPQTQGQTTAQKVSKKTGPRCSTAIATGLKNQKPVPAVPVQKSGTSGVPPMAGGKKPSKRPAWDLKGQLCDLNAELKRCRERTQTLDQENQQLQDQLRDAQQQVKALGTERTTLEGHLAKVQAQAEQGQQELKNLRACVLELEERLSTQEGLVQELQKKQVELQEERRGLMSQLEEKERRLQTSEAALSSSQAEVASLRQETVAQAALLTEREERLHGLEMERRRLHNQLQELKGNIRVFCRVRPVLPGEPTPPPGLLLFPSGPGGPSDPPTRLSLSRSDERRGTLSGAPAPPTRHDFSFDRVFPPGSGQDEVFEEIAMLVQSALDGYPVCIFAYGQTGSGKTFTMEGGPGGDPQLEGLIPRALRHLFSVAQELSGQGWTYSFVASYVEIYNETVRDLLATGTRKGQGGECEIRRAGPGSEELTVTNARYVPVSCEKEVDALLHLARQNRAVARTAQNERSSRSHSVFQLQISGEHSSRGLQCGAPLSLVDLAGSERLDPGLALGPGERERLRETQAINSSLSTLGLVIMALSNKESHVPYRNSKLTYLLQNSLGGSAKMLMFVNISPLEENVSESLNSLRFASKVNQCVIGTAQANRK

[21] = molecular target: LRRC20, G9a-methylated (human) (UniProt Q8TCA0)
[22] = molecular target: LYPLAL1, G9a-methylated (human) (UniProt Q5VWZ2)
[23] = molecular target: PPARG, G9a-methylated (human) (UniProt P37231)
[24] = molecular target: PPIL5, G9a-methylated (human) (UniProt Q96L50)
PPIL5, G9a-methylated (human), sequence (Q96L50 whole entry): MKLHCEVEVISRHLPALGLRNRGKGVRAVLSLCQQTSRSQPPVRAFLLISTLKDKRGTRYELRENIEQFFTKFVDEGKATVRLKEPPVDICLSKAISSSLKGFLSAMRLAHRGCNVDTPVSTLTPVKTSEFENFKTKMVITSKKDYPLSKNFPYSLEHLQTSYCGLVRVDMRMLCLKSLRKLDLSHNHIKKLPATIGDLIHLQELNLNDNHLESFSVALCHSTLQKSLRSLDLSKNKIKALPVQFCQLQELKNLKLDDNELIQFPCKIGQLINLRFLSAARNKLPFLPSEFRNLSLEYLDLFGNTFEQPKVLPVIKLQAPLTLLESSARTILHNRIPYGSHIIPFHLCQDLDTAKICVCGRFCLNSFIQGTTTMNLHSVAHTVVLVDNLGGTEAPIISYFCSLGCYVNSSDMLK

[25] = molecular target: PTCD2, G9a-methylated (human) (UniProt Q8WV60)
PTCD2, G9a-methylated (human), sequence (Q8WV60 whole entry): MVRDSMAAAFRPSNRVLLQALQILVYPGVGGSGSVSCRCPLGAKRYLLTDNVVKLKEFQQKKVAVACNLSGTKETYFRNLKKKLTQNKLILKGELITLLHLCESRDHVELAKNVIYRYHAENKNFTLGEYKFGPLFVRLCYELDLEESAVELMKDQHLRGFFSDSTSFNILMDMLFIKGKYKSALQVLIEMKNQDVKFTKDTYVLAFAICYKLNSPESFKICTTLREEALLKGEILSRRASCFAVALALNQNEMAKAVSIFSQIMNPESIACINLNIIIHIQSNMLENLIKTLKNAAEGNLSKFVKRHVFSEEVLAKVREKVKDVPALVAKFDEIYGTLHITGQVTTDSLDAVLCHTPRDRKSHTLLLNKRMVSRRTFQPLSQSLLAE

[26] = molecular target: RTN1, G9a-methylated (human) (UniProt Q16799)
[27] = molecular target: SAR1B, G9a-methylated (human) (UniProt Q9Y6B6)
[28] = molecular target: SCGB2A2, G9a-methylated (human) (UniProt Q13296)
[29] = molecular target: SH3YL1 (clone MGC:12275), G9a-methylated (human) (UniProt Q96HL8)
SH3YL1 (clone MGC:12275), G9a-methylated (human), sequence (Q96HL8 whole entry): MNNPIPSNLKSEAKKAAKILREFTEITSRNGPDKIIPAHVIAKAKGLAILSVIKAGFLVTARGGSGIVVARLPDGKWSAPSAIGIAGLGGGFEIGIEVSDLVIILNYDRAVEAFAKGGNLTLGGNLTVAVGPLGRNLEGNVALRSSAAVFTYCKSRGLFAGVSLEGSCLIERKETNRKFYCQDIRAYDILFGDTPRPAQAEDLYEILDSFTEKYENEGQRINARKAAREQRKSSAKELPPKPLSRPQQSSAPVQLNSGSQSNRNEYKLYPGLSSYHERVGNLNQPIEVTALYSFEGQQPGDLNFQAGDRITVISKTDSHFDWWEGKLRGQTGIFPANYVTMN

[30] = molecular target: SH3YL1 (hit 65), G9a-methylated (human) (UniProt Q96HL8)
[31] = molecular target: SMAP1, G9a-methylated (human) (UniProt Q8IYB5)
SMAP1, G9a-methylated (human), sequence (Q8IYB5 whole entry): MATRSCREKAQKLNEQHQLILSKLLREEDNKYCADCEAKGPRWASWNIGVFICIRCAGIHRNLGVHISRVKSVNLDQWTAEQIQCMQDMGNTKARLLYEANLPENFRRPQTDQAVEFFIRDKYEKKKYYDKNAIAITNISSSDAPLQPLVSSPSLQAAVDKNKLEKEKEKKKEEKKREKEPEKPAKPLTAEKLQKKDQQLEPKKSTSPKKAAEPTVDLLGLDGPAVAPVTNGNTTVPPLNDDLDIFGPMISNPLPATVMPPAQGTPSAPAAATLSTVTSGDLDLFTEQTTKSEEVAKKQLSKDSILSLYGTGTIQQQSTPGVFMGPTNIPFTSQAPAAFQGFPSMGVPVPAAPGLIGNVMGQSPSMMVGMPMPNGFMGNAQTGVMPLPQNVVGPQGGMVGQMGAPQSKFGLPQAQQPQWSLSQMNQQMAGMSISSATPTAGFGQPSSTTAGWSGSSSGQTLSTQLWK

[32] = molecular target: SMYD5, G9a-methylated (human) (UniProt Q6GMV2)
[33] = molecular target: TGDS, G9a-methylated (human) (UniProt O95455)
[34] = molecular target: TMED5, G9a-methylated (human) (UniProt Q9Y3A6)
[35] = molecular target: TMEM32, G9a-methylated (human) (UniProt Q8N4V1)
TMEM32, G9a-methylated (human), sequence (Q8N4V1 whole entry): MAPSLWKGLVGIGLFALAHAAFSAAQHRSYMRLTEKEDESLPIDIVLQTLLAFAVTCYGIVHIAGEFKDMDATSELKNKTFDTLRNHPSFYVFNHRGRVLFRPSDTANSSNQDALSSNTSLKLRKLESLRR

[36] = molecular target: TMEM97, G9a-methylated (human) (UniProt Q5BJF2)
[37] = molecular target: UBE2S, G9a-methylated (human) (UniProt Q16763)
UBE2S, G9a-methylated (human), sequence (Q16763 whole entry): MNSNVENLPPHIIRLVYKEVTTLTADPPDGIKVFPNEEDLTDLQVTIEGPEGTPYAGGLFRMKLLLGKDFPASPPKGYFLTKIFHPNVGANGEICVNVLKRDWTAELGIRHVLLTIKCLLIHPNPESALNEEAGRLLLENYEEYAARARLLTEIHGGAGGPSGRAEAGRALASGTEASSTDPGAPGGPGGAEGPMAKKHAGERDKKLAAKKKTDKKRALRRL

[38] = molecular target: VPS29, G9a-methylated (human) (UniProt Q9UBQ0)
[39] = molecular target: ZNF695, G9a-methylated (human) (UniProt Q8IW36)
[40] = molecular target: ZRANB1, G9a-methylated (human) (UniProt Q9UGI0)

ARL6IP1, G9a-methylated (human), sequence (Q15041 whole entry): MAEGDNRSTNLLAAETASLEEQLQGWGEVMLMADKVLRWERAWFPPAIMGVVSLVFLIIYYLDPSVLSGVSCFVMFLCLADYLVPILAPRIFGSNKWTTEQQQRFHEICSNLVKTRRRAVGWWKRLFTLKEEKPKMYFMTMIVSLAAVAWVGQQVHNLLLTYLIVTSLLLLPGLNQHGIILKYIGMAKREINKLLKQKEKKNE

G9a-GST [1]: 12.1 | G9a-GST [2]: 20.8 | G9a-GST [3]: 14.6 | G9a-GST [4]: 12.5 | G9a-GST [5]: 14.3 | G9a-GST [6]: 12.2 | G9a-GST [7]: 34.4 | G9a-GST [8]: 14.5 | G9a-GST [9]: 26 | G9a-GST [10]: 13.2 | G9a-GST [11]: 14.1 | G9a-GST [12]: 18.3 | G9a-GST [13]: 13.7 | G9a-GST [14]: 12.2 | G9a-GST [15]: 13.2 | G9a-GST [16]: 12.8 | G9a-GST [17]: 20 | G9a-GST [18]: 13.3 | G9a-GST [19]: 16.1 | G9a-GST [20]: 62.4 | G9a-GST [21]: 30.9 | G9a-GST [22]: 15.6 | G9a-GST [23]: 13.3 | G9a-GST [24]: 12.4 | G9a-GST [25]: 18.7 | G9a-GST [26]: 13.8 | G9a-GST [27]: 19.3 | G9a-GST [28]: 13.8 | G9a-GST [29]: 12.7 | G9a-GST [30]: 16.2 | G9a-GST [31]: 20.2 | G9a-GST [32]: 19.5 | G9a-GST [33]: 12.4 | G9a-GST [34]: 15.5 | G9a-GST [35]: 12.1 | G9a-GST [36]: 22.8 | G9a-GST [37]: 24.7 | G9a-GST [38]: 15.5 | G9a-GST [39]: 18.8 | G9a-GST [40]: 13.6
Substance: 3× Flag-3×MBT (designed binder)
